The data set deals with the molecule itself. As to the kind of experiment: native gel or EMSA; DnaA (ADP or ATP form) incubated at 30°C for 5 min in dissociation buffer (20 mM Tris-HCl pH 7.5, 100 mM potassium glutamate, 10 mM magnesium acetate, 2 mM ATP) with DARS2ΔRight or DARS2ΔRight/subFBS1 DNA (15 fmol) and poly (dI-dC), 5% PAGE; DnaA multimers form on the DNA; without or with IHF and Fis. On the technique in general: Mobility shift assays separate free from complexed probe on a gel.

B1: DnaA (wild type) (natural protein, Escherichia coli, UniProt P03004 1-467, looked up)
chain: MSLSLWQQCLARLQDELPATEFSMWIRPLQAELSDNTLALYAPNRFVLDWVRDKYLNNINGLLTSFCGADAPQLRFEVGTKPVTQTPQAAVTSNVAAPAQVAQTQPQRAAPSTRSGWDNVPAPAEPTYRSNVNVKHTFDNFVEGKSNQLARAAARQVADNPGGAYNPLFLYGGTGLGKTHLLHAVGNGIMARKPNAKVVYMHSERFVQDMVKALQNNAIEEFKRYYRSVDALLIDDIQFFANKERSQEEFFHTFNALLEGNQQIILTSDRYPKEINGVEDRLKSRFGWGLTVAIEPPELETRVAILMKKADENDIRLPGEVAFFIAKRLRSNVRELEGALNRVIANANFTGRAITIDFVREALRDLLALQEKLVTIDNIQKTVAEYYKIKVADLLSKRRSRSVARPRQMAMALAKELTNHSLPEIGDAFGGRDHTTVLHACRKIEQLREESHDIKEDFSNLIRTLSS
notes: DnaA, chromosomal replication initiator protein, Escherichia coli, wild type; Used loaded with ADP or ATP (not covalent); also called ADP–DnaA; ATP–DnaA
For B1, the binding result is “binds”.

Source of the values: article PMC4245941, “Timely binding of IHF and Fis to DARS2 regulates ATP–DnaA production and replication initiation” (Nucleic Acids Research, 2014).
